We go through five sequences from patent US20150275192.

Some results are limits rather than exact numbers.

The target in series [1] is L1-CAM (CD171) extracellular domain (UniProt P32004). Nature of the series: FP. As to conditions: 5' DNA primer fd; remainder A = alpha-thio-dA, C = gemcitabine (2',2'-difluoro-dC), G = FANA-G, T = floxuridine (5-fluoro-dU); exact value only in figure.
Series [2] has as its target T1, CD30 extracellular domain (UniProt P28908).
T1 sequence: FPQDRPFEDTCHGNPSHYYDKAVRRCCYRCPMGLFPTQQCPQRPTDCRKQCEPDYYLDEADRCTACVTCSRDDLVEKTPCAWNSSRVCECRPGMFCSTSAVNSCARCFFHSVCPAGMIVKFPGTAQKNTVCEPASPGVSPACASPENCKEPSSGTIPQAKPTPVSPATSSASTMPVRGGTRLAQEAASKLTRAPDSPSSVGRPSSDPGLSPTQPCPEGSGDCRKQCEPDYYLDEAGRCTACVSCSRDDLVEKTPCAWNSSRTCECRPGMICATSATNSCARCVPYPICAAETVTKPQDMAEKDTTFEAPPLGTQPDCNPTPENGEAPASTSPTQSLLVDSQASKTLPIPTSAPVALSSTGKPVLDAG
Nature of the series: FP. The conditions noted are these: 5' DNA primer fd; remainder A = alpha-thio-dA, C = gemcitabine (2',2'-difluoro-dC), G = FANA-G, T = floxuridine (5-fluoro-dU); exact value only in figure.

L1-CAM (CD171) extracellular domain, sequence (P32004 20-1120): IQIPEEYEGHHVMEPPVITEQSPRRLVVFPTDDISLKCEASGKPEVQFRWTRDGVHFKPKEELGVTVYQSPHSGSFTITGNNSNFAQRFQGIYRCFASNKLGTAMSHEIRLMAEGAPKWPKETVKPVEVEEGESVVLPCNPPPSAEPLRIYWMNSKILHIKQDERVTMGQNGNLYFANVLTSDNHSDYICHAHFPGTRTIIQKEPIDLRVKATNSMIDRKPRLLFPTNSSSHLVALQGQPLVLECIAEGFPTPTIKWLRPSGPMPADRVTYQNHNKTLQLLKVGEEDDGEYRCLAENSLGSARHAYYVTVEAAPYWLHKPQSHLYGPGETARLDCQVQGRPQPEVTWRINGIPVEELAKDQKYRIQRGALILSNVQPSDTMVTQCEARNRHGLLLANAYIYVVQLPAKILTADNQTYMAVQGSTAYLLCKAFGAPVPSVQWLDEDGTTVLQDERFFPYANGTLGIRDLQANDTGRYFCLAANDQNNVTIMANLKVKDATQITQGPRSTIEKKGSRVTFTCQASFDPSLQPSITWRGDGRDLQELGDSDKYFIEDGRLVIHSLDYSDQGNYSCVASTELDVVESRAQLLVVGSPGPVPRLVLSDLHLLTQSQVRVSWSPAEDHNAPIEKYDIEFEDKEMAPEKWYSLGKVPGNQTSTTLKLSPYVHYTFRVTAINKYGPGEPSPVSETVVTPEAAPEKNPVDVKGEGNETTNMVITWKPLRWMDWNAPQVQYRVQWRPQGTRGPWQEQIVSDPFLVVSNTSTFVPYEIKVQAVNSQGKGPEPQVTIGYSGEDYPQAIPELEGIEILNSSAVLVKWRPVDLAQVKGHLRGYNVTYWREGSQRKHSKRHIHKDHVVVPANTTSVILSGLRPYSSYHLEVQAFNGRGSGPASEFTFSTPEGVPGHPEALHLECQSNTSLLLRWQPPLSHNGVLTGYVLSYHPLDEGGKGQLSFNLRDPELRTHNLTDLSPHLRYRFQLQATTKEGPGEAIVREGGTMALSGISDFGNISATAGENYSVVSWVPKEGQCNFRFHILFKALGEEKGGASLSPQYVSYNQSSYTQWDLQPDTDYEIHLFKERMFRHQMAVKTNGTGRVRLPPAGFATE

In the case of “CCCCTTATTAGCGTTTGCCAGCGACGCCGTTCAACCAGATATTGAAGCAGAACGCAAAAAGAGAGATGAGATTGAGGCT [L1CAM_I1]”, the dissociation constant (Kd) (in general, the free concentration of one partner at which half of the binding sites on the other are occupied at equilibrium, for simple one-to-one binding) in series [1] is less than 100 nM.

“CCCCTTATTAGCGTTTGCCATAGATGTGGTAGAAGTCGTCATTTGGCGAGAAAGCTCAGTCTCAGG [CD30_I3]” yielded a Kd in series [2] greater than 100 nM.

As for “CCCCTTATTAGCGTTTGCCATTTCATGGTATTGATAAAGCTGTTGCCGATACTTGGAACAATTTCT [CD30_I30]”, in series [2], the Kd was less than 100 nM.

As to “CCCCTTATTAGCGTTTGCCATAGATGTGGTAGAAGTCGTCATTTGGCGAGAAAGCTCAGTCTCAGG [L1-CAM_I6]”, in series [1], the Kd was less than 100 nM.

With “CCCCTTATTAGCGTTTGCCAACGACGCGACGCCGTTCAACCAGATATTGAAGCAGAACGCAAAAAGA [L1-CAM_Icore]”, the equilibrium dissociation constant (Kd) in series [1] is less than 100 nM.
